# Reference: PMC9561678
# Target: phosphorylated JAK2 (UniProt O60674)
# Experiment: co-immunoprecipitation (IP p-JAK2, IB c-Mpl) with densitometry
# Settings: HEK293T cells; 20 ng/mL TPO stimulation; parent: est. 1.3; read off a plot
# UniProt O60674, sequence (O60674 whole entry): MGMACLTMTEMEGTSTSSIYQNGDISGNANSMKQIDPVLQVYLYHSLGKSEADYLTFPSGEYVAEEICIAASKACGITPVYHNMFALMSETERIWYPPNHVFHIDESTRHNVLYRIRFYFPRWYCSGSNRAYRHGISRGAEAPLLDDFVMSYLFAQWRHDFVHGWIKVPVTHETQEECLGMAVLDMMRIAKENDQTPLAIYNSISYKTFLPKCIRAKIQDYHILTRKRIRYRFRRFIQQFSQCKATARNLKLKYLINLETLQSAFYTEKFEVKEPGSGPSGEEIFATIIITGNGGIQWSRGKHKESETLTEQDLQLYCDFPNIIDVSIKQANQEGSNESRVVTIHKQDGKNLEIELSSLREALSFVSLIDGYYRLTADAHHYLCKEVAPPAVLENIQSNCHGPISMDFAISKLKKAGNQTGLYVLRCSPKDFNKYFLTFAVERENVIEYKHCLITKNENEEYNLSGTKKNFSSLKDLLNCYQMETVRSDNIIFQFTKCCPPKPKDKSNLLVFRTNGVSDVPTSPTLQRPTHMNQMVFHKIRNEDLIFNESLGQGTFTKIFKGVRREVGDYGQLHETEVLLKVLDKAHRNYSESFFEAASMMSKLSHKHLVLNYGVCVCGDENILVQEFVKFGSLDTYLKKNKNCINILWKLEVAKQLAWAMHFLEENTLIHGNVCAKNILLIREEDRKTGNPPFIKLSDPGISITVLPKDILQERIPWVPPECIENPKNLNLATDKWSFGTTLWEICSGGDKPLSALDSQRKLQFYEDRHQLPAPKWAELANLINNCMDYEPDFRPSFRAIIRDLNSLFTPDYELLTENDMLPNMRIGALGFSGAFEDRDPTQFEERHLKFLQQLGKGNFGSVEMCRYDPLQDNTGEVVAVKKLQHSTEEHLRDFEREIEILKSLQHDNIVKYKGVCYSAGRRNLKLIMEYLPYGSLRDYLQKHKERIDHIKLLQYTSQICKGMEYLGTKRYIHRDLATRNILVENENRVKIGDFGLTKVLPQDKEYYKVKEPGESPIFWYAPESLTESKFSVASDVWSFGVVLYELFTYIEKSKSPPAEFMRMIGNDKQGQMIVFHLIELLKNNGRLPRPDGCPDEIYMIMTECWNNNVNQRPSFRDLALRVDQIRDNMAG
row,response,Substance
1,0.44,c-Mpl-del (c-Mpl alternative splicing isoform with a 24 amino acid deletion in the extracellular region) Y602F
2,0.18,c-Mpl-del (c-Mpl alternative splicing isoform with a 24 amino acid deletion in the extracellular region) Y607F
3,0.54,c-Mpl-del (c-Mpl alternative splicing isoform with a 24 amino acid deletion in the extracellular region) Y567F
